The values below come from publication PMC8615638, “Tumor Marker B7-H6 Bound to the Coiled Coil Peptide-Polymer Conjugate Enables Targeted Therapy by Activating Human Natural Killer Cells” (Biomedicines, 2021).

The labels stand for the following.
B4: coiled coil B7-H6 (B7-H6CC) (ligand)
chain: ITGDLKVEMMAGGTQITPLNDNVTIFCNIFYSQPLNITSMGITWFWKSLTFDKEVKVFEFFGDHQEAFRPGAIVSPWRLKSGDASLRLPGIQLEEAGEYRCEVVVTPLKAQGTVQLEVVASPASRLLLDQVGMKENEDKYMCESSGFYPEAINITWEKQTQKFPHPIEISEDVITGPTIKNMDGTFNVTSSLKLNSSQEDPGTVYQCVVRHASLHTPLRSNFTGTVAALKEKVAALKEKVAALKEKVAALKEK
notes: additional N-terminal residues from the vector; B7-H6, extracellular domain, residues D25-T244 with stabilizing mutation C212S; GT and the (VAALKEK)4 coiled coil motif (peptide K), written out from -GT(VAALKEK)4H8G; C-terminus is -GT(VAALKEK)4H8G: the His8 is followed by a final G. In the flow cytometry the protein was labelled with AlexaFluor647 by NHS chemistry; Six N-glycosylation sites; also …

One series has as its target NKp30 (Homo sapiens) (UniProt O14931). As to the kind of experiment: BLI. As to conditions: cited from earlier work.
In series [1] the target is B4. As to the kind of experiment: flow cytometry on cells; PolCC mixed with AlexaFluor647-labelled B7-H6CC and scFvCC (AlexaFluor488-labelled or not); complexes carried to CAIX-expressing cells by scFvCC and B7-H6CC detected on the cells; 45 min on ice, 1 µM polymer. As to conditions: both partners purified. In general terms: Flow cytometry measures light scatter and fluorescence of single cells or particles in a stream.

Series [2] addresses T1, high-affinity B7-H6 (haB7-H6; S60Y, F82W, L129Y) (UniProt Q68D85 25-245, C212S | S60Y | F82W | L129Y).
T1 construct: same doubt on the C-terminal limit (L245 or T244); also called untagged haB7-H6; source: HEK293T (suspension-adapted), transient transfection, secreted, purified (IMAC, SEC)
T1 sequence (looked up): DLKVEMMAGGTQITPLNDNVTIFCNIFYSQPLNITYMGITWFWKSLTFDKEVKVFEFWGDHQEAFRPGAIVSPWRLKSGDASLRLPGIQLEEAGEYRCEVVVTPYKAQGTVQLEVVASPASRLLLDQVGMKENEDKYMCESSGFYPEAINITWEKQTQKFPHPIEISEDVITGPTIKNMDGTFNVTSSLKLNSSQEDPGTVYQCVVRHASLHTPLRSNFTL
As to the kind of experiment: ITC; NKp30 (124-182 µM) injected into a cell with the B7-H6 variant (15.6-25.0 µM); 25 °C; 10 mM HEPES, 150 mM NaCl, 10 mM NaN3, pH 7.5; fitted as A + B <=> AB, N = 1 - incompetent fraction of B7-H6. As to conditions: both partners purified. (In ITC the heat of successive injections is recorded.)

Series [3] deals with B4. The series is described as above. As to conditions: both partners purified.
In series [4] the target is T2, wild-type B7-H6 (extracellular domain of B7-H6 without the coiled coil tag, C212S) (UniProt Q68D85 25-245, C212S).
T2 construct: B7-H6, extracellular domain, residues D25-L245 with stabilizing mutation C212S; cloned as described previously [37]; also called non-modified B7-H6; soluble B7-H6 construct; source: HEK293T (suspension-adapted), transient transfection, secreted, purified (IMAC, SEC)
T2 sequence (looked up): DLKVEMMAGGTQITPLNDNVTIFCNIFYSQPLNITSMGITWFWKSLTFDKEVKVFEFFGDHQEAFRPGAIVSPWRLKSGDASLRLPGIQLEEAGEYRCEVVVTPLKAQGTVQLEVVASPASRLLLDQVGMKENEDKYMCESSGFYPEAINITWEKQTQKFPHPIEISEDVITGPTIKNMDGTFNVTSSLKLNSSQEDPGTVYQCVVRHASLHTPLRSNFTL
The description is as above. As to conditions: both partners purified.

Series [5] has as its target T3, high-affinity coiled coil B7-H6 (haB7-H6CC; S60Y, F82W, L129Y) (UniProt Q68D85 25-244, C212S | S60Y | F82W | L129Y).
T3 construct: additional N-terminal residues from the vector, as in B7-H6CC; GT and the (VAALKEK)4 coiled coil motif, as in B7-H6CC; C-terminus -GT(VAALKEK)4H8G; source: HEK293T (suspension-adapted), transient transfection, secreted, purified (IMAC, SEC); not shown: His8 (H8G), C-terminal, kept
T3 sequence: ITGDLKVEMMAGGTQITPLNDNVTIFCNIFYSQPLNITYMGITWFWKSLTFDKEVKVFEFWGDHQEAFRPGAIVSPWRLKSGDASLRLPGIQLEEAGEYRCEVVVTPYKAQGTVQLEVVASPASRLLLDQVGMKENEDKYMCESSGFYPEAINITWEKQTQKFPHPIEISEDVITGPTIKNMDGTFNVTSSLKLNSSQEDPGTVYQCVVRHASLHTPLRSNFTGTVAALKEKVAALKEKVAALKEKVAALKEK
The series is described as above. As to conditions: both partners purified.

For series [6], the target named is B4. As to the kind of experiment: AUC; sedimentation velocity, B7-H6CC titrated with NKp30; 20 °C, 48,000 rpm, 280 nm, SEC buffer; sw isotherm fitted with A + B <=> AB. As to conditions: both partners purified.
Series [7] concerns the target B4. In words: AUC; sedimentation velocity, PolCC+ titrated with B7-H6CC; 20 °C, 42,000 rpm, 280 nm, SEC buffer. As to conditions: both partners purified.
Series [8] concerns the molecule itself. In words: AUC; sedimentation velocity of B7-H6CC alone; 20 °C, 48,000 rpm, absorbance 280 nm, SEC buffer; monomer-dimer equilibrium.

Values joined by “and” are separate entries in the source; they are usually repeats but may differ in a detail not shown here. Equal entries are not always repeated. Where no end group is shown, it is not given here.

Broadly, the Kd is the constant that tells how readily two partners part at equilibrium. For orientation: stoichiometry N means a count of units in the complex or per binding partner.

As to B7-H6 IgV domain (from UniProt Q68D85), in the series with NKp30 (Homo sapiens), the Kd was 409 nM.

B1: PolCC: pHPMA copolymer conjugated with (VAALEKE)4 coiled coil peptides (other)
peptide: VAALEKEVAALEKEVAALEKEVAALEKE
modifications: also: attached to pHPMA copolymer via azide-alkyne cycloaddition, site not given here
notes: (VAALEKE)4 coiled coil peptide, written out from the printed repeat; 56 kDa conjugate with approximately eight coiled coil peptides on each polymer chain (40% w/w); the polymer also carries biotin; The polymer itself is no protein; also called coiled coil peptide-polymer conjugate; pHPMA-(VAALEKE)4; source: synthetic peptide attached to HPMA copolymer by click chemistry, as described previously …
Regarding B1, the binding result in series [1] was “binds”.

B2: NKp30 ligand-binding domain (residues L19-E130, receptor ectodomain without stalk region) (receptor, UniProt O14931 19-130, looked up)
chain: LWVSQPPEIRTLEGSSAFLPCSFNASQGRLAIGSVTWFRDEVVPGKEVRNGTPEFRGRLAPLASSRFLHDHQAELHIRDVRGHDASIYVCRVEVLGLGVGTGNGTRLVVEKE
notes: cloned as described previously [37]; source: HEK293T (suspension-adapted), transient transfection, secreted, purified (IMAC, SEC)
As to B2, the Kd in [2] turned out to be 115 nM; in series [3] it was 787 nM; in [4] it was 668 nM; in [5], 259 nM; in series [6] it was 895 nM. The dH in series [2] was -12.7 kcal/mol; in series [3], -11.2 kcal/mol; in [4], -11.5 kcal/mol; in [5] it was -11.8 kcal/mol. Further, the “stoichiometry N” value in series [2] was 0.91; in series [3], 0.74; in [4], 0.88; in series [5], 0.65; in series [6], 0.78 and 1.

B3: PolCC+: HPMA copolymer of increased length conjugated with (VAALEKE)4 coiled coil peptides (other)
peptide: VAALEKEVAALEKEVAALEKEVAALEKE
modifications: also: attached to HPMA copolymer via copper-free click chemistry, site not given here
notes: (VAALEKE)4 coiled coil peptide, written out from the printed repeat; 130 kDa conjugate with approximately ten coiled coil peptides on each polymer chain (26% w/w); the polymer also carries biotin; Synthesis details are in File S1; source: synthetic peptide attached to HPMA copolymer (RAFT polymerization, copper-free click chemistry); purified by SEC; copies: 10
For B3, in series [7], the binding result is reported as “binds”.
As for B4, the “stoichiometry N” value in series [8] came out at 2.
